The target of this assay is T1, Danio rerio CPAP G-box domain (DrCPAP_(G-box), amino acids 943–1121) (Danio rerio, UniProt E7FCY1 943-1121).
T1 sequence (looked up): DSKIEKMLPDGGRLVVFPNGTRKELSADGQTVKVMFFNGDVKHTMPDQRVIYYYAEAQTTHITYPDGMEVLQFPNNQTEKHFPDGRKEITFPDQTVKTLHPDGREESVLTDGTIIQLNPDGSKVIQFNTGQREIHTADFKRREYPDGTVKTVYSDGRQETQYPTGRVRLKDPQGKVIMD
The assay can be described thus: ITC. A general note: ITC needs no label: the signal is the heat of the interaction.

B1: C. elegans SAS-5 fragment corresponding to amino acids 2–122 (SAS-5N) (domain or fragment, UniProt Q20010 2-122, looked up)
chain: NNYDDLPCSIYFKKPTVQEFVDQPRVFEDSEVPAFQEVLQLPQERTKPPVPSTQPIVAAVEVAKKKSCLSAPKPRKEPPSHPALRQKTVAFGKTVNVSQTVEGTSRNSKKVLASTMSAQNT
B1 gave a Kd of 34 ± 4 µM.

What is called Kd is a measure of binding affinity in units of concentration. Lower therefore signals tighter binding.

Values taken from article PMC6003225 (Molecular Biology of the Cell, 2018).
